Bridges are numbered along the chain shown (N, C = ends). Where no end group is shown, it is not given here.
Biological target: T1, TNFR1 (Homo sapiens, UniProt P19438)
T1 chain: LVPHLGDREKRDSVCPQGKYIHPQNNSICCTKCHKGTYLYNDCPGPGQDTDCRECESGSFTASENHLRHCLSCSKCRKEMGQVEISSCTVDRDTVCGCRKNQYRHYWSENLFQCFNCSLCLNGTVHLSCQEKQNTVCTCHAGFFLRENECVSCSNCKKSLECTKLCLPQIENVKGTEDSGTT
Assay: ELISA

Binder | Kd
CTISRIAVSYQTKVNRLSC (disulfide 1-19) [L16R (α_CC8 L16R cyclic peptide)] | 177 nM
YCWSQYLCY (disulfide 2-8 (inferred)) [WP9QY] | 1150 nM

Source: publication PMC11547827 (2024)
